According to IntAct's records for PubMed 16924104:

B1: Polyunsaturated fatty acid 5-lipoxygenase (Homo sapiens), P09917 (parent)
chain: MPSYTVTVATGSQWFAGTDDYIYLSLVGSAGCSEKHLLDKPFYNDFERGAVDSYDVTVDEELGEIQLVRIEKRKYWLNDDWYLKYITLKTPHGDYIEFPCYRWITGDVEVVLRDGRAKLARDDQIHILKQHRRKELETRQKQYRWMEWNPGFPLSIDAKCHKDLPRDIQFDSEKGVDFVLNYSKAMENLFINRFMHMFQSSWNDFADFEKIFVKISNTISERVMNHWQEDLMFGYQFLNGCNPVLIRRCTELPEKLPVTTEMVECSLERQLSLEQEVQQGNIFIVDFELLDGIDANKTDPCTLQFLAAPICLLYKNLANKIVPIAIQLNQIPGDENPIFLPSDAKYDWLLAKIWVRSSDFHVHQTITHLLRTHLVSEVFGIAMYRQLPAVHPIFKLLVAHVRFTIAINTKAREQLICECGLFDKANATGGGGHVQMVQRAMKDLTYASLCFPEAIKARGMESKEDIPYYFYRDDGLLVWEAIRTFTAEVVDIYYEGDQVVEEDPELQDFVNDVYVYGMRGRKSSGFPKSVKSREQLSEYLTVVIFTASAQHAAVNFGQYDWCSWIPNAPPTMRAPPPTAKGVVTIEQIVDTLPDRGRSCWHLGAVWALSQFQENELFLGMYPEEHFIEKPVKEAMARFRKNLEAIVSVIAERNKKKQLPYYYLSPDRIPNSVAI
partner: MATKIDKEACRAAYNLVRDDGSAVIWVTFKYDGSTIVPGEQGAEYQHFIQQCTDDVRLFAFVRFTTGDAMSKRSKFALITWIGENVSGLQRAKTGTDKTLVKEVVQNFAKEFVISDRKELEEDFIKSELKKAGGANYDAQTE

Variants of: B1
Conditions: with cotl1_human COTL1, Q14019

| Variant | effect of a mutation on the interaction |
| --- | --- |
| W14A;W76A;W103A | disrupting interaction strength |
